{"source": "patent US20160303245A1", "about": "“FATTY ACID DERIVATIVES OF DIMERIC INHIBITORS OF PSD-95” (UNIVERSITY OF COPENHAGEN, priority 2013, published 2016)", "key": {"[1]": {"molecular_target": "Human Serum Albumin (human) (UniProt P02768)", "assay": "calculated from KD at 588 µM HSA (equation 2)"}, "[2]": {"molecular_target": "Human Serum Albumin (human) (UniProt P02768)", "assay": "calculated from KD(HSA) at 150 µM HSA (equation 2)"}, "[3]": {"molecular_target": "Human Serum Albumin (human) (UniProt P02768)", "assay": "Transil XL HSA binding kit (immobilized HSA), unbound compound by RP-HPLC"}}, "note": "pKd: −log10 of the molar value."}
{"substance": "UCCB01-144 (peptide)", "values": [{"measurement": "fb (%), fraction bound to HSA", "setting": "[1]", "value": 65.3, "unit": "%"}, {"measurement": "fu (%), fraction unbound", "setting": "[2]", "value": 67.9, "unit": "%"}, {"measurement": "pKd", "setting": "[3]", "value": 3.50}]}
